According to the supplement of paper PMC10567573:

B1: ANKRD17 (parent)
chain: EVLRRLTSSVSCALDEAAAALTRM
B2: RHOBTB1 (parent)
chain: TFGDHHKDRRFAYGRSDVVVLCFS

Variants of: B1
Assay: protein stability index of a GFP-peptide fusion (GPS, HEK-293T) (PSI 1-6); higher = more stable
Details: c terminus: a fixed tail appended
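Also: lentivirally expressed fusions sorted by FACS into six bins by GFP to DsRed ratio, PSI derived from sequencing read proportions per bin multiplied by bin number.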

Protein stability index, by site and new letter:
V2: H 3.64; Q 2.56; M 2.56; L 2.35; R 2.6; T 2.79; W 1.69; E 2.21; Y 2.08; C 2.34; P 2.43; I 2.4; A 2.96; D 2.77; K 2.33; S 2.59
S8: M 2.13; G 1.52; H 2.09; D 2.25; F 4.21; K 2.39; A 1.68; C 2.81
R5: N 2.35; H 2.23; F 1.68; M 2.05; D 3.56; L 1.59; T 1; K 4.55; G 2.1; P 2.02; S 2.18; W 1.02
L6: C 2.38; G 1.42; T 2.32; Q 2.95; P 2.38; W 2; K 2.17; F 1.9; H 1.66; I 1.67; M 1.76; S 1.73; N 2.07; A 2.11; Y 2.28; E 3.9
R4: I 1.04; T 2.1; S 1.05; E 1.42; Q 1.57; G 2.19; W 1.07; Y 2.34; P 2.15; F 1.03; C 1.74
T7: A 2.96; C 2.05; K 3.26; L 2.95; P 2.52; Y 2.2; N 1.16; Q 2.6; S 2.09; W 1.98; R 3; H 1.17; M 2.05; I 2.06; F 1.66; E 2.81; G 2.27; V 3; D 1.81
E1: L 1.8; K 2.28; C 1.94; Q 3.07; Y 2.22; G 2.73; I 1.89; R 3.12; H 2.67; V 2.42; D 1.97; P 2.48; T 2.08; S 2.2; M 1.38; A 2.07; F 1.73
L3: M 1.41; I 1.23; R 2.17; W 1.4; S 2.98; T 1.55; P 3.4; Y 2.44; D 3.35; G 3.68; A 1.83

Variants of: B2
Assay: as above
Details: c terminus: a fixed tail appended

Protein stability index, by site and new letter:
V19: E 1.88; G 1.61; P 1.69; L 2.82; H 2; R 1.89; S 1.87; I 2.14; C 1.26; D 2.93; A 2.23; M 2.17; N 2.28; W 1.37; Y 2.45; Q 1.52; K 1.92; T 2.68
L21: N 2.44; T 2.14; K 2.34; I 1.49; V 2.86; A 1.62; S 2.15; G 2.23; W 2.3; E 2.79; H 1.9; M 2.78; C 1.85; P 2.56; Q 2.4; F 2.07; D 2.68; R 1.96
R9: S 1.86; V 3.55; T 1.42; Q 3.83
F11: W 2.28; K 1.35; A 1.69; I 2.38; Y 1.27; D 1.78; L 1.98; P 1.89; H 2.37; S 1.13; N 2.49; E 1.49
C22: K 2.17; F 3.21; G 2.21; L 2.42; D 2.32
